According to article PMC8373167 (Advanced Science, 2021):

Key:
[1] = assay type: in vivo, mice
Protocol: Supplemental Figure 5. Body weight monitoring following DX600 exposure was conducted in mice for 25 days. The experiment was carried out in 10 mice at 4-weeks of age. The mice were either […]
was repeated on day 0, day 4, day 11, day 18 and day 25, and the weight of the mice was […]
group (n = 5, weight from 26.5 ± 5.2 g to 41.2 ± 3.1 g) and the control group (n = 5, weight from […]

ACE2 [2] = conditions: cited from earlier work
ACE2 [3] = molecular target: T1, ACE2 (Homo sapiens, UniProt Q9BYF1); test: biochemical
Target sequence in this assay (Q9BYF1 18-805): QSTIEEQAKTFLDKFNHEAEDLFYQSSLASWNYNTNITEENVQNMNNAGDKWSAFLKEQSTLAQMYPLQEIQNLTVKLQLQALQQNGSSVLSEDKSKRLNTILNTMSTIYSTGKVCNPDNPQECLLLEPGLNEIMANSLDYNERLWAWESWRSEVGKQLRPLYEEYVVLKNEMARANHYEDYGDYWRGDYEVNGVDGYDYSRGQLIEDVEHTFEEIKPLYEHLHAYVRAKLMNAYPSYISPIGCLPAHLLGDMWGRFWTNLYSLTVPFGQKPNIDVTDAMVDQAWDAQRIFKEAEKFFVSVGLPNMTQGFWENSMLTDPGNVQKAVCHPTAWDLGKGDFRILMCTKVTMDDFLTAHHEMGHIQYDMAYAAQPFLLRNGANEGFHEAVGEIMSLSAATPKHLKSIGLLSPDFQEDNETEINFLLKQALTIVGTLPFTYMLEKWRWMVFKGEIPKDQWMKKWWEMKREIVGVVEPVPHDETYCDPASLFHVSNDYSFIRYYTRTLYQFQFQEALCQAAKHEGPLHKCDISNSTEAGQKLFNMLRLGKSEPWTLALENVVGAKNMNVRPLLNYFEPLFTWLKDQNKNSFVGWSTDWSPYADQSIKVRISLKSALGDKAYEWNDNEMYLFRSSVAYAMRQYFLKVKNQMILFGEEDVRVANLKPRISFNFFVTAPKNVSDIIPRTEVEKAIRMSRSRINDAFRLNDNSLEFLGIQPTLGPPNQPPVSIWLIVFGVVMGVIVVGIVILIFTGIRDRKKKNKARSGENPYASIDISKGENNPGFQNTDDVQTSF
Protocol: Briefly, recombinant human ACE2 protein (50 µg mL^−1; BP003061) was immobilized on the surface of the nanogold sensor chip, after the chip was activated by 1‐ethyl‐3‐(3‐dimethylaminopropyl)carbodiimide/N‐hydroxysuccinimide. […] K D, ka and kd were calculated using Trace Drawer Evaluation version 2.0 (Trace Software International, Saint‐Romain, France).

[4] = assay type: physicochemical; conditions: 0.01 M PBS, 37 °C, 50 µL tracer in 450 µL PBS, sampled at 1, 2, 4 h; stated within 2 h
Protocol: The solution was analyzed by radio‐HPLC to assess the radiochemical purity. The HPLC was eluted with water‐CH3CN system (Phase A: 0.1% TFA H2O; Phase B: 0.1% TFA CH3CN) using gradient elution (0–5 min 20% B; 5–10 min 20%–80% B; 10–12 min 80% B; 12–15 min 80%–20% B) at a flow rate of 1.0 mL min^−1. The radiolabeling yield was 59.9 ± 3.9% (non‐decay corrected, n = 10) and the radiochemical purity was over 95%. […] At 1, 2, and 4 h time points, 10 µL aliquot was analyzed by radio‐HPLC to assess the radiochemical purity.
Supplemental Figure 2. […] (A) Saturation binding assay […]
assay of DX600. (C) hACE2 expression specifically determine the accumulation of 64Cu-HZ20 over HEK293-hACE2 and HEK293-WT cells for 2 h incubation at 37 °C. (D) Stability analysis

ACE2 [5] = molecular target: T1, ACE2; conditions: in vivo
Target sequence in this assay (Q9BYF1 18-805): as above

ACE2 [6] = molecular target: T1, ACE2; conditions: PET/MR 2 h after injection, female volunteers #005 and #012
Target sequence in this assay (Q9BYF1 18-805): as above

in vivo = conditions: female, athymic nude, mouse, HepG2 xenograft tumor, iv, 3.7 MBq, total radioactivity
Protocol: 5 × 10^6 of HepG2 cells were inoculated into the right front shoulder region of the mice to build the xenograft tumor model with ACE2 expression. When the tumor volumes were estimated to be 450–800 mm^3, the mice were used for the studies. […] Scans were performed at 60, 120, and 180 min after administration. […] Subsequently, animals were scanned at 60, 120, and 180 min post‐injection. Regions of interest were defined over tumor, heart, liver, lung, kidney, and muscle and uptake computed relative to the injected activity.
Tumor, heart, liver, lung, kidney and muscle were selected for analysis.

clinical = conditions: human, in vivo, iv, total radioactivity
ACE2 [7] = molecular target: T1, ACE2; test: SPR; recombinant human ACE2 (50 ug/mL) immobilised on a nanogold sensor chip activated with EDC/NHS; dilutions of peptide flowed at 20 uL/min for 7 min; Nicoya OpenSPR
Target sequence in this assay (Q9BYF1 18-740): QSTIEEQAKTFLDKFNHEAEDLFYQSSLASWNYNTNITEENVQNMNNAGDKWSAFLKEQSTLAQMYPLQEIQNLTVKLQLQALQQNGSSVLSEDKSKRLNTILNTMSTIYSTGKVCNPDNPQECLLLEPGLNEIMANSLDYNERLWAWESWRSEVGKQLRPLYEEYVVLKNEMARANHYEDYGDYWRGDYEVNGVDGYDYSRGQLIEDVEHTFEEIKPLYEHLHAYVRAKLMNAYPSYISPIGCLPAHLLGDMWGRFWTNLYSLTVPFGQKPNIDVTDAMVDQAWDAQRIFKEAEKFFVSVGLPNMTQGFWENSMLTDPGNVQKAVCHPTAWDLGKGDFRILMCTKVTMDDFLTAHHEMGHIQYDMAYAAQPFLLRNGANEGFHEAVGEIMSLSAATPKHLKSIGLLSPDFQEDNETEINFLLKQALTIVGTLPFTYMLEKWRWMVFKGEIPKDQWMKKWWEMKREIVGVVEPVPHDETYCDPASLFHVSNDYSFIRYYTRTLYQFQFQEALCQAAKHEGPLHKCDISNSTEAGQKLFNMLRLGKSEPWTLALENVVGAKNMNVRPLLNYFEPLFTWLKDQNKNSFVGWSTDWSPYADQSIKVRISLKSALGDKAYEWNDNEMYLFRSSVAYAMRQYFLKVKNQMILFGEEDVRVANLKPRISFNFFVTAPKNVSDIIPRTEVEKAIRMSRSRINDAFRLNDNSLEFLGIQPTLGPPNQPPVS

## CC(=O)NCC(=O)N[C@@H](CC(=O)O)C(=O)N[C@@H](Cc1ccc(O)cc1)C(=O)N[C@@H](CO)C(=O)N[C@@H](Cc1cnc[nH]1)C(=O)N[C@H]1CSSC[C@@H](C(=O)N[C@H](C(=O)N[C@@H](Cc2ccc(O)cc2)C(=O)N2CCC[C@H]2C(=O)N[C@@H](CC(=O)O)C(=O)N2CCC[C@H]2C(=O)N[C@@H](CCC(=O)O)C(=O)NCC(=O)NCC(=O)NCC(N)=O)[C@@H](C)O)NC(=O)[C@H](CCCCN)NC(=O)[C@H](Cc2c[nH]c3ccccc23)NC(=O)[C@H](Cc2c[nH]c3ccccc23)NC(=O)[C@@H]2CCCN2C(=O)[C@H](Cc2ccc(O)cc2)NC(=O)[C@H](Cc2ccc(O)cc2)NC(=O)[C@H](CCCNC(=N)N)NC(=O)[C@H](CC(C)C)NC(=O)[C@@H]2CCCN2C(=O)[C@H](CO)NC1=O [DX600]
[1]; mice 4 weeks old, n = 5, injections day 0, 4, 11, 18, 25
  body weight at start: 26.5 ± 5.2 g
[1]; mice, n = 5, 25 days, injections day 0, 4, 11, 18, 25
  body weight at end: 41.2 ± 3.1 g
[1]; mice, n = 5 per group, 25 days
  body weight versus saline control group: no significant difference
ACE2 [2]
  stability to ACE2 catalyzed hydrolysis: stable

## CC(C)C[C@@H]1NC(=O)[C@@H]2CCCN2C(=O)[C@H](CO)NC(=O)[C@@H](NC(=O)[C@H](Cc2c[nH]cn2)NC(=O)[C@H](CO)NC(=O)[C@H](Cc2ccc(O)cc2)NC(=O)[C@H](CC(=O)O)NC(=O)CNC(=O)CN2CCN(CC(=O)O)CCN(CC(=O)O)CCN(CC(=O)O)CC2)CSSC[C@@H](C(=O)N[C@H](C(=O)N[C@@H](Cc2ccc(O)cc2)C(=O)N2CCC[C@H]2C(=O)N[C@@H](CC(=O)O)C(=O)N2CCC[C@H]2C(=O)N[C@@H](CCC(=O)O)C(=O)NCC(=O)NCC(=O)NCC(N)=O)[C@@H](C)O)NC(=O)[C@H](CCCCN)NC(=O)[C@H](Cc2c[nH]c3ccccc23)NC(=O)[C@H](Cc2c[nH]c3ccccc23)NC(=O)[C@@H]2CCCN2C(=O)[C@H](Cc2ccc(O)cc2)NC(=O)[C@H](Cc2ccc(O)cc2)NC(=O)[C@H](CCCNC(=N)N)NC1=O [HZ20]
ACE2 [3]
  Kd: 100 nM

## CC(C)C[C@@H]1NC(=O)[C@@H]2CCCN2C(=O)[C@H](CO)NC(=O)[C@@H](NC(=O)[C@H](Cc2c[nH]cn2)NC(=O)[C@H](CO)NC(=O)[C@H](Cc2ccc(O)cc2)NC(=O)[C@H](CC(=O)O)NC(=O)CNC(=O)CN2CCN(CC(=O)O)CCN(CC(=O)O)CCN(CC(=O)O)CC2)CSSC[C@@H](C(=O)N[C@H](C(=O)N[C@@H](Cc2ccc(O)cc2)C(=O)N2CCC[C@H]2C(=O)N[C@@H](CC(=O)O)C(=O)N2CCC[C@H]2C(=O)N[C@@H](CCC(=O)O)C(=O)NCC(=O)NCC(=O)NCC(N)=O)[C@@H](C)O)NC(=O)[C@H](CCCCN)NC(=O)[C@H](Cc2c[nH]c3ccccc23)NC(=O)[C@H](Cc2c[nH]c3ccccc23)NC(=O)[C@@H]2CCCN2C(=O)[C@H](Cc2ccc(O)cc2)NC(=O)[C@H](Cc2ccc(O)cc2)NC(=O)[C@H](CCCNC(=N)N)NC1=O [^68Ga‐HZ20, metal not drawn]
[4]
  in vitro stability (radiochemical purity by radio-HPLC): stable
ACE2 [5]
  SUVmax breast: 2.72
  SUVmax testis: 5.57
  blood-brain barrier penetration: poor
ACE2 [6]
  uptake in immature follicles: no uptake
  uptake in stroma of ovary: slight uptake
In vivo
  SUV at 2 h: 0.099 ± 0.0065 SUV
  tissue uptake per volume at 2 h: 0.56 %ID/mL
clinical; female, SUVmax breast
  SUV at 1.5 h: 1.78 ± 0.17 SUV
clinical; female, SUVmax breast, old group
  SUV at 1.5 h: 1.35 ± 0.22 SUV
clinical; female, SUVmax breast, young group
  SUV at 1.5 h: 2.21 ± 0.25 SUV
clinical; female, SUVmax corpus luteum
  SUV: 7.35 SUV
clinical; female, SUVmax gallbladder
  SUV at 1.5 h: 2.76 SUV
clinical; female, SUVmax ovary
  SUV at 1.5 h: 2.12 ± 1.42 SUV
clinical; female, SUVmax renal cortex
  SUV at 1.5 h: 38.8 SUV
clinical; female, SUVmax uterus
  SUV at 1.5 h: 2.41 ± 0.34 SUV
clinical; SUVmax conjunctiva
  SUV at 1.5 h: 1.71 ± 0.08 SUV
clinical; SUVmax esophagus
  SUV at 1.5 h: 1.63 ± 0.11 SUV
clinical; SUVmax liver
  SUV at 1.5 h: 1.59 ± 0.14 SUV
clinical; SUVmax nasal
  SUV at 1.5 h: 1.91 ± 0.18 SUV
clinical; SUVmax pancreas
  SUV at 1.5 h: 1.63 ± 0.24 SUV
clinical; SUVmax rectum
  SUV at 1.5 h: 1.46 ± 0.13 SUV
clinical; SUVmax renal cortex (right kidney in Figure 7)
  SUV at 1.5 h: 25.7 ± 1.39 SUV
clinical; SUVmax renal cortex, left kidney
  SUV at 1.5 h: 22.2 ± 1.78 SUV
clinical; SUVmax renal cortex, right kidney, person recovered from COVID-19, 7 months post infection, 90 min
  SUV at 1.5 h: 18.4 SUV
clinical; SUVmax renal medulla
  SUV at 1.5 h: 18.3 ± 1.42 SUV
clinical; male, SUVmax gallbladder
  SUV at 1.5 h: 0.75 SUV
clinical; male, SUVmax gallbladder, male recovered from COVID-19, 90 min
  SUV at 1.5 h: 4.32 SUV
clinical; male, SUVmax left testis
  SUV at 1.5 h: 4.58 ± 0.4 SUV
clinical; male, SUVmax left testis, male recovered from COVID-19, 90 min
  SUV at 1.5 h: 8.65 SUV
clinical; male, SUVmax penis
  SUV at 1.5 h: 2 ± 0.25 SUV
clinical; male, SUVmax renal cortex
  SUV at 1.5 h: 23.9 SUV
clinical; male, SUVmax renal cortex, left kidney, male recovered from COVID-19, 90 min
  SUV at 1.5 h: 11.6 SUV
clinical; male, SUVmax right testis
  SUV at 1.5 h: 4.51 ± 0.54 SUV
clinical; male, SUVmax right testis, male recovered from COVID-19, 90 min
  SUV at 1.5 h: 8.79 SUV
clinical; male, SUVmax small intestine
  SUV at 1.5 h: 0.48 SUV
clinical; male, SUVmax testis
  SUV at 1.5 h: 4.46 ± 0.3 SUV

## DOTA-DX600 (peptide)
ACE2 [7]
  Kd: 100 nM

## DX600 (peptide)
ACE2 [7]
  Kd: 98.7 nM
